Experimental findings from patent US20070036793A1, “Methods for use of an lkb1/strad7mo25 complex” (priority 2003, published 2007) are described below.

The target of this experiment is T1, LKB1 (Mus musculus, UniProt Q9WTK7).
T1 construct: Constructs expressing the full length wild type and kinase dead mouse LKB1 have been described previously; made in house; host or cells: 293 cells, transiently transfected
T1 sequence (Q9WTK7 1-433 limits assumed): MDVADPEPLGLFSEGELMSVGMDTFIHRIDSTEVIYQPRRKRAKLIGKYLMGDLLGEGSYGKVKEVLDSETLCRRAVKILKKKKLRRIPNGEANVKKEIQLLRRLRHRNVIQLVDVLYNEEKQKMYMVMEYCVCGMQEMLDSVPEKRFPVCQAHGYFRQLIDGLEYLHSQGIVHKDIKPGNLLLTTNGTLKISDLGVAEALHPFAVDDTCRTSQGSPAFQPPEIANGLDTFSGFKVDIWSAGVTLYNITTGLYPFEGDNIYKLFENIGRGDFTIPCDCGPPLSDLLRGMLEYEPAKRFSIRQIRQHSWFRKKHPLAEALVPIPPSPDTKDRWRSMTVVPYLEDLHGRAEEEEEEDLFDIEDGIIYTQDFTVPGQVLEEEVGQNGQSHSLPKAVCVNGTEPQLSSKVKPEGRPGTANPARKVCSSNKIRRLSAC
T1 sequence (Q7RTN6 1-431 partner): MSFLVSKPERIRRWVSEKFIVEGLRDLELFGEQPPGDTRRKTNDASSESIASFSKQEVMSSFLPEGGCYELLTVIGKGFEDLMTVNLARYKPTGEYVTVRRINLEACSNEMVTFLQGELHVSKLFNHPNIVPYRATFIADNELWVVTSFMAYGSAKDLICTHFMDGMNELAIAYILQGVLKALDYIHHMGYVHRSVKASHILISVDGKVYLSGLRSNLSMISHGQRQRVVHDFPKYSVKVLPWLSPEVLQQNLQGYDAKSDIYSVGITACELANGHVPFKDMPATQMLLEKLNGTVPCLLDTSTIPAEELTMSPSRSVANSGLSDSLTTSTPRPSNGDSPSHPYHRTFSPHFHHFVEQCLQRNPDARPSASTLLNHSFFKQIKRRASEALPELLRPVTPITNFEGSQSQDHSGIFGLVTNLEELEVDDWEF
T1 sequence (Q9Y376 1-341 partner): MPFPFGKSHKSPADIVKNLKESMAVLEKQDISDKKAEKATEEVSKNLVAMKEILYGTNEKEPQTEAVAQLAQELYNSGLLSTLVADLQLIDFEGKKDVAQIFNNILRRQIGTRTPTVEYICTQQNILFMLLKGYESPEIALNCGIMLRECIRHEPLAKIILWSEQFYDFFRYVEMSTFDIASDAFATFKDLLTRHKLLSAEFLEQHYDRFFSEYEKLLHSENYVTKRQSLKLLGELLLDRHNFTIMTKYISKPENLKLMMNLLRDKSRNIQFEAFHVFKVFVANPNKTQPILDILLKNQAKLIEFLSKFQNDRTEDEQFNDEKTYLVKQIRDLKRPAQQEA
Nature of the experiment: LKB1 autophosphorylation and phosphorylation of MBP after co-expression with STRAD and MO25 isoforms in 293 cells. The format is biochemical. Conditions: GST-LKB1 co-expressed with STRAD and MO25 isoforms in 293 cells. Here is the method: FIG. 9. Activation of LKB1 by association with STRAD and MO25 Isoforms. 293 cells were transfected with constructs encoding GST-LKB1 in the presence or absence of constructs encoding the indicated isoforms of STRAD and MO25. 36 h post-transfection, GST-LKB1 was affinity purified and assayed for autophosphorylation and transphosphorylation of MBP as described in the materials and methods. The reactions were electrophoresed and the gel autoradiographed (top panel). Phosphorylation of MBP by LKB1 at Thr65 was also monitored by immunoblotting with a phosphospecific antibody (T65-P), which recognises MBP phosphorylated by LKB1 at this residue. Each reaction was also immunoblotted with the appropriate epitope tag antibodies to monitor levels of LKB1, STRAD and MO25 isoforms. Similar results were obtained in 3 separate experiments.
LKB1 autophosphorylation and phosphorylation of MBP. […] After incubation for 40 min at 30° C., the reactions were terminated by the addition of 8 μl of sample Buffer. 30 μl was electrophoresed on SDS-polyacrylamide gels, which were then dried and analysed by autoradiography to quantify LKB1 autophosphorylation, MBP and STRADα phosphorylation. 5 μl of each reaction was diluted in 45 μl of 1× SDS Sample Buffer. […]

B1: STRADα: STE20-related pseudokinase (STe20-Related ADaptor protein-α) that binds and activates LKB1 (protein, UniProt Q7RTN6 1-431, looked up)
STE20-related kinase adapter …: MSFLVSKPERIRRWVSEKFIVEGLRDLELFGEQPPGDTRRKTNDASSESIASFSKQEVMSSFLPEGGCYELLTVIGKGFEDLMTVNLARYKPTGEYVTVRRINLEACSNEMVTFLQGELHVSKLFNHPNIVPYRATFIADNELWVVTSFMAYGSAKDLICTHFMDGMNELAIAYILQGVLKALDYIHHMGYVHRSVKASHILISVDGKVYLSGLRSNLSMISHGQRQRVVHDFPKYSVKVLPWLSPEVLQQNLQGYDAKSDIYSVGITACELANGHVPFKDMPATQMLLEKLNGTVPCLLDTSTIPAEELTMSPSRSVANSGLSDSLTTSTPRPSNGDSPSHPYHRTFSPHFHHFVEQCLQRNPDARPSASTLLNHSFFKQIKRRASEALPELLRPVTPITNFEGSQSQDHSGIFGLVTNLEELEVDDWEF
Turning to B1, the “increase in LKB1 activity relative to LKB1 expressed alone” value worked out at 4 fold.
